Consider 1 molecule from article PMC4384728 (The Journal of Cell Biology, 2015).

Test [1] deals with T1, HA-VEGFR2-TMD.
T1 chain: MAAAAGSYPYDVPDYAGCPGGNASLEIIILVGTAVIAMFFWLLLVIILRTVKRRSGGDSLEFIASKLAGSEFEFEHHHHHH
Kind of test: pull-down.

Test [2] has as its target T2, HA-VEGFR3-TMD.
T2 chain: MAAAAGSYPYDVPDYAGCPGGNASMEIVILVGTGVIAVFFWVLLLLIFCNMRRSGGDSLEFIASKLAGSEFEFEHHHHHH
Kind of test: pull-down.

B1: Flag-VE-TMD (domain or fragment)
chain: MAAAAGSDYKDDDDKGCPGGNASVSIQAVVAILLCILTITVITLLIFLRRRSGGLNDIFEAQKIEWHESSEFEFEHHHHHH
Regarding B1, the binding result in test [1] and in test [2] was “binds” in each case.
